Data published in patent US20230330196A1, “IMMUNOSUPPRESSIVE AGENTS” (The Trustees of Columbia University in the City of New York, priority 2020, published 2023).

Molecular target: T1, PD-1H (Homo sapiens, UniProt Q9H7M9)
T1 construct: Flag (N); expressed in transfected cells; host or cells: HEK293
Assay: Co-immunoprecipitation of c-myc tagged MMP-13 constructs with Flag-PD-1H in HEK293 cells
Format: binding
Details: HEK293 cells co-transfected with Flag-PD-1H; IP with anti-c-myc; FIG. 5A
Description: To identify key binding domains between PD-1H and MMP-13, a series of truncated deletion mutants was tested. The MMP-13 zymogen has a pro-peptide domain (aa 20-103) that maintains latency, a catalytic domain (aa 103-268) containing the catalytic zinc-binding motif, and a hinge linker region (aa 269-280) that connects the catalytic domain region with the C-terminal hemopexin domain (aa 281-471).
WCL were analyzed as input. […].

B1: Hem: MMP-13 truncation mutant containing the hemopexin domain (delta aa 37-267) (protein)
chain: LPLPSGGDEDDLSEEDLPGDEDPNPKHPKTPDKCDPSLSLDAITSLRGETMIFKDRFFWRLHPQQVDAELFLTKSFWPELPNRIDAAYEHPSHDLIFIFRGRKFWALNGYDILEGYPKKISELGLPKEVKKISAAVHFEDTGKTLLFSGNQVWRYDDTNHIMDKDYPRLIEEDFPGIGDKVDAVYEKNGYIYFFNGPIQFEYSIWSNRIVRVMPANSILWC
modifications: left off: small tags and cut ends
binding to PD-1H (co-IP): retained only a fraction of the wild-type binding activity
